In patent US20180057596A1 (AstraZeneca / MedImmune, published 2018):
Positions count from the first letter of the chain named.

T1: cynomolgus IL-4Rα HIS FLAG (cynomolgus)
T1 construct: also called Cyno IL4Rα HIS FLAG; not shown: HIS and FLAG tags and any vector-encoded linker of the cynomolgus HIS FLAG construct
T1 chain: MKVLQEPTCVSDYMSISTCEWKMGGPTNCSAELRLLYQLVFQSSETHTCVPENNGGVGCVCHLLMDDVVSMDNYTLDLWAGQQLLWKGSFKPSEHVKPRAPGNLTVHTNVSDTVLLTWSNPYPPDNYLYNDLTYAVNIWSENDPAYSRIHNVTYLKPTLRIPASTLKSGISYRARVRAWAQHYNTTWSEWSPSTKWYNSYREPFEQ

T2: human IL-4Rα HIS FLAG (in house HEK-EBNA derived) (human, biotinylated where used as the labelled partner in the DELFIA assay)
T2 construct: also called HuIL-4Rα; Human IL4-Rα/FLAG/HIS tag
T2 chain: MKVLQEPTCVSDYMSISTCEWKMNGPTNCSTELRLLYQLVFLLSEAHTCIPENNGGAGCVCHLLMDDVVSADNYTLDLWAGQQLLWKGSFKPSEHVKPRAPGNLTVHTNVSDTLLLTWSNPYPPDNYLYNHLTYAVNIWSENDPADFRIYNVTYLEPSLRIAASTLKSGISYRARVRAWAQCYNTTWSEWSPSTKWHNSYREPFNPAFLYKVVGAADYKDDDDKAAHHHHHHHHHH

T3: human IL-4Rα on TF-1 cells (human, UniProt P24394 26-825)
T3 sequence (looked up): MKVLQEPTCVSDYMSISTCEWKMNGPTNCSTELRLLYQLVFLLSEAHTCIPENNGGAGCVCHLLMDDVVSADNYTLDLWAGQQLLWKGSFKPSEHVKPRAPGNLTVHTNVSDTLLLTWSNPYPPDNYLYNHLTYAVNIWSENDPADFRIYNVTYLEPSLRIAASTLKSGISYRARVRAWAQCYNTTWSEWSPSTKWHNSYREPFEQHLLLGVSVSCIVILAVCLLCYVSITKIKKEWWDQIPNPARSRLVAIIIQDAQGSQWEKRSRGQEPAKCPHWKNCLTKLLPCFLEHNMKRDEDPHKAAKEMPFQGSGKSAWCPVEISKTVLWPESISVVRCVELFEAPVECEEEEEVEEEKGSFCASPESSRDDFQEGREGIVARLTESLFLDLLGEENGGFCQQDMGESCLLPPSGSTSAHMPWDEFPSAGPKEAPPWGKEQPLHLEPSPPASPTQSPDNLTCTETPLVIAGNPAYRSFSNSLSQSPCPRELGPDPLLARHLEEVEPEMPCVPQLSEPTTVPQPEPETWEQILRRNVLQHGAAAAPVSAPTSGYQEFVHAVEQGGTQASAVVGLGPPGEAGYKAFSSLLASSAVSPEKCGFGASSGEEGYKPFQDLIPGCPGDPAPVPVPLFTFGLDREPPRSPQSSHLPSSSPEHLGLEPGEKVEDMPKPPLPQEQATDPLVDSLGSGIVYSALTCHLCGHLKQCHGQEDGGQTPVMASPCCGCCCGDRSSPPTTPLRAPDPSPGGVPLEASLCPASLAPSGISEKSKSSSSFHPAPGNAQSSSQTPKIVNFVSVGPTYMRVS

T4: human IL4Rα/Fc (R and D Systems 604-4R) (human, UniProt P24394 26-231, limits assumed, biotin labelled in the assay of Example 5)
T4 construct: bought protein; also called IL-4Rα/Fc (R&D systems Cat. No. 604-4R-050); not shown: Fc part of the bought fusion
T4 sequence (looked up): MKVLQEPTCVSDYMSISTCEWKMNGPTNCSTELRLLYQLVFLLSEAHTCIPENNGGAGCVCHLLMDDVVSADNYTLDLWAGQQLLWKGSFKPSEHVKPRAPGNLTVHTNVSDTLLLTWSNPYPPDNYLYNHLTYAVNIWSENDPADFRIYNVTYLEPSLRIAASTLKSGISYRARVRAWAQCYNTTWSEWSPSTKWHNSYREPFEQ

B1: Antibody 20 IgG (antibody, V domains shown)
VH: QVQLVQSGAEVKKPGASVKVSCKASGYAFTSYYMHWARQAPGQGLEWMGIINPSGGSTSYAQKFQGRVTMTRDTSTSTVYMELSSLRSEDTAVYYCARGKYWMYDWGKGTLVTVSS
VL: QSVLTQPPSVSAAPGQKVTISCSGGSSNIGNSYVSWYQQLPGTAPKLLIYDNNKRPSGIPDRFSGSKSGTSATLAITGLQTGDEADYYCGTWDTSTVWEWPFGTGTKLTVL
B2: Antibody 2 IgG (antibody, V domains shown)
VH: B1 VH with Y101W, M103L, D105N
VL: B1 VL with T96Q, V97P, W98P, E99N, W100P, P101L
B3: Antibody 9 IgG (antibody, V domains shown)
VH: B1 VH with Y101W, M103L, D105N
VL: B1 VL with V97T, W98M, E99Y, W100P, P101L
B4: Antibody 1 IgG (antibody, V domains shown)
VH: B1 VH with Y101W, M103L, Y104D, D105Y
VL: B1 VL with T96L, V97S, W98A, E99N, W100Y, P101V
B5: Antibody 41 scFv (scFv, V domains shown)
VH: B1 VH with K12R, S88P, S116G
VL: B1 VL with S27T, Q39R, S57P
notes: tested as purified scFv
B6: Antibody 42 scFv (scFv, V domains shown)
VH: B1 VH with M48V, E89G
VL: B1 VL with S2A, Q39R, T43A, V97G
notes: tested as purified scFv
B7: Antibody 8 IgG (antibody, V domains shown)
VH: B1 VH with Y101W, M103W, Y104Q, D105Y
VL: B1 VL with V97T, W98Y, E99H, W100P, P101I
B8: Antibody 10 IgG (antibody, V domains shown)
VH: B1 VH with Y101W, M103L
VL: B1 VL with W98L, E99T, W100P, P101I
B9: Antibody 11 IgG (antibody, V domains shown)
VH: B1 VH with Y101W, M103F
VL: B1 VL with T96P, V97S, W98M, E99I, W100P, P101L
B10: Antibody 12 IgG (antibody, V domains shown)
VH: B1 VH with Y101W, M103F
VL: B1 VL with V97T, W98M, E99Y, W100P, P101L
B11: Antibody 14 IgG (antibody, V domains shown)
VH: B1 VH with Y101W, M103L, D105N
VL: B1 VL with T96P, V97P, W98T, E99K, W100P, P101L
B12: Antibody 15 IgG (antibody, V domains shown)
VH: B1 VH with Y101W, M103L, D105N
VL: B1 VL with V97H, W98R, E99H, W100P, P101L
B13: Antibody 16 IgG (antibody, V domains shown)
VH: B1 VH with Y101W, M103L, D105N
VL: B1 VL with V97T, W98Y, E99H, W100P, P101I
B14: Antibody 19 IgG (antibody, V domains shown)
VH: B1 VH with Y101W, M103W, Y104Q, D105H
VL: B1 VL with V97T, W98Y, E99H, W100P, P101I
B15: Antibody 13 IgG (antibody, V domains shown)
VH: B1 VH with Y101W, M103L
VL: B1 VL with V97T, W98L, E99Q, W100P, P101L
B16: Antibody 21 IgG (antibody, V domains shown)
VH: B1 VH with T58A
VL: B1 VL with D86V, Y88F
B17: Antibody 24 IgG (antibody, V domains shown)
VH: B1 VH with S54R
VL: B1 VL with Y88F
B18: Antibody 25 IgG (antibody, V domains shown)
VH: B1 VH with S54R, T58A, T69S
VL: B1 VL with S71T, D93V
B19: Antibody 31 IgG (antibody, V domains shown)
VH: B1 VH
VL: B1 VL with N28S, D93A, T96P
B20: Antibody 42 IgG (antibody, V domains shown)
VH: B1 VH with M48V, E89G
VL: B1 VL with S2A, Q39R, T43A, V97G
B21: Antibody 4 IgG (antibody, V domains shown)
VH: B1 VH with Y101W, M103L, D105N
VL: B1 VL with T96S, V97P, W98P, E99Q, W100P, P101I
B22: Antibody 7 IgG (antibody, V domains shown)
VH: B1 VH with Y101W, M103W, Y104Q, D105Y
VL: B1 VL with T96S, V97P, W98P, E99Q, W100P, P101I

Biological target: T1, cynomolgus IL-4Rα HIS FLAG
Test: SPR (BIAcore 2000), IgG captured on Protein G', receptor as analyte, 1:1 Langmuir
Experimental: (§1) In brief, Protein G′ (Sigma Aldrich, P4689) was covalently coupled to the surface of a CM5 sensor chip using standard amine coupling reagents according to manufacturer's instructions (BIAcore). This Protein G′ surface was used to capture a constant amount of purified anti-IL4R• antibodies or isotype control via the Fc domain. Human or cynomolgus IL-4R• HIS FLAG prepared in HBS-EP buffer (BIAcore AB), at a range of concentrations, between 100 nM and 0.2 nM, were passed over the sensor chip surface. […] The resulting sensorgrams were evaluated using BIA evaluation 4.1 software and fitted to 1:1 Langmuir binding model, to provide the relative binding data. The experiments were performed over the course of at least three separate days to calculate an average monovalent affinity.

First: B1
Second: B2
The Kd of the first is 1.7-fold lower: 27.7 nM for the first, 47.5 nM for the second.

B3 was tested, and the Kd was 124 nM.

B1 and B2 are within 1.5-fold of each other in koff: 0.00452 s⁻¹ for the first, 0.00459 s⁻¹ for the second.

Binder B3 has a koff of 0.0163 s⁻¹.

Compared with B1, B2 is 1.7-fold lower in kon: 163000 M⁻¹ s⁻¹ for the first, 96700 M⁻¹ s⁻¹ for the second.

Work on B3 yielded a kon of 131000 M⁻¹ s⁻¹.

Biological target: T2, human IL-4Rα HIS FLAG (in house …)
Test: as above
Experimental: as §1

Going from B1 to B2, the Kd rises from 1.25 nM to 4.51 nM (3.6-fold). The first binds more tightly here.

B3 was tested, and the Kd was 0.422 nM.

First: B1
Second: B2
The koff of the first is 3.4-fold lower: 0.000873 s⁻¹ for the first, 0.00294 s⁻¹ for the second.

Work on B3 yielded a koff of 0.000229 s⁻¹.

B1 and B2 are within 1.5-fold of each other in kon: 698000 M⁻¹ s⁻¹ for the first, 651000 M⁻¹ s⁻¹ for the second.

For B3, the kon was 543000 M⁻¹ s⁻¹.

Each binder was assayed against T3, human IL-4Rα on TF-1 cells (assay: cell-based or functional assay).

For B4, the “IC50 geomean, IL-4 induced TF-1 cell proliferation” value was 38 nM.

B4 was tested, and the “IC50 geomean, IL-13 induced TF-1 cell proliferation” value was 18 nM.

What follows are binders tested against T5, cynomolgus IL4Rα/Fc HIS6 (HEK expressed) (cynomolgus monkey) (assay: HTRF receptor-ligand assay, purified scFv against biotinylated cynomolgus IL4).
T5 construct: also called Cyno IL4R; cynomolgus IL-4Rα HIS Fc (in house HEK-EBNA derived); not shown: HIS6 tag
T5 sequence (chain, as listed by the source): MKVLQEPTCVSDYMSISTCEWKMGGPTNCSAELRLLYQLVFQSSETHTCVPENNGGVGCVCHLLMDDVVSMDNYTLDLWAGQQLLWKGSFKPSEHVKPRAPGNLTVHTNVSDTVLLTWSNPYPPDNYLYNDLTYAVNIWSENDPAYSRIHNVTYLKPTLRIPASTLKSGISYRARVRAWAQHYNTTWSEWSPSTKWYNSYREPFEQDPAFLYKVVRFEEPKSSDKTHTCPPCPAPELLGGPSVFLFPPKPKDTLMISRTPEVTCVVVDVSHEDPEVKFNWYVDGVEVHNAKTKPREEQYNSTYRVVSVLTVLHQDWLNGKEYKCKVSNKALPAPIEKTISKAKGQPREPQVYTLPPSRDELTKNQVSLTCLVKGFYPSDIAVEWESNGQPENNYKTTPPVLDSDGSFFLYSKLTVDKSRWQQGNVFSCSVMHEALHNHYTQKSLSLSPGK

B5 and B6 are within 1.5-fold of each other in Ki: 2.7 nM for the first, 2.5 nM for the second.

Each binder was assayed against T4, human IL4Rα/Fc (R and D Systems 604-4R) (assay: HTRF receptor-ligand assay, purified scFv against biotinylated human IL4).

Compared with B5, B6 is 2-fold lower in Ki: 0.053 nM for the first, 0.027 nM for the second.

Biological target: T3, human IL-4Rα on TF-1 cells
Test: cell-based or functional assay
Remark: another data set of the same source

Compared with B7, B1 is higher in “IC50 (pM), IL-4 induced TF-1 cell proliferation” value: 7.9 pM for the first, 31.1 pM for the second.

Going from B2 to B3, the “IC50 (pM), IL-4 induced TF-1 cell proliferation” value falls from 41.7 pM to 8.88 pM.

Going from B8 to B9, the “IC50 (pM), IL-4 induced TF-1 cell proliferation” value rises from 10.1 pM to 18.8 pM.

Compared with B10, B11 is lower in “IC50 (pM), IL-4 induced TF-1 cell proliferation” value: 18.2 pM for the first, 3.8 pM for the second.

Going from B12 to B13, the “IC50 (pM), IL-4 induced TF-1 cell proliferation” value rises from 2.8 pM to 6.2 pM.

Going from B14 to B15, the “IC50 (pM), IL-4 induced TF-1 cell proliferation” value rises from 7.6 pM to 15.7 pM.

Going from B16 to B17, the “IC50 (pM), IL-4 induced TF-1 cell proliferation” value falls from 19.7 pM to 12.6 pM.

Going from B18 to B19, the “IC50 (pM), IL-4 induced TF-1 cell proliferation” value rises from 9.8 pM to 20.2 pM.

Going from B20 to B21, the “IC50 (pM), IL-4 induced TF-1 cell proliferation” value rises from 20.2 pM to 20.9 pM.

In the case of B22, the “IC50 (pM), IL-4 induced TF-1 cell proliferation” value is reported as 12.3 pM.

Compared with B7, B1 is higher in “IC50 (pM), IL-13 induced TF-1 cell proliferation” value: 22.4 pM for the first, 66.1 pM for the second.

First: B2
Second: B3
The “IC50 (pM), IL-13 induced TF-1 cell proliferation” value of the first is higher: 171 pM for the first, 20.4 pM for the second.

Going from B8 to B9, the “IC50 (pM), IL-13 induced TF-1 cell proliferation” value rises from 25.4 pM to 32.7 pM.

First: B10
Second: B11
The “IC50 (pM), IL-13 induced TF-1 cell proliferation” value of the first is higher: 40.7 pM for the first, 27.2 pM for the second.

First: B12
Second: B13
The “IC50 (pM), IL-13 induced TF-1 cell proliferation” value of the first is lower: 17.8 pM for the first, 19.5 pM for the second.

Compared with B14, B15 is higher in “IC50 (pM), IL-13 induced TF-1 cell proliferation” value: 22.4 pM for the first, 24.6 pM for the second.

First: B16
Second: B17
The “IC50 (pM), IL-13 induced TF-1 cell proliferation” value of the first is higher: 34.7 pM for the first, 30.2 pM for the second.

Going from B18 to B19, the “IC50 (pM), IL-13 induced TF-1 cell proliferation” value rises from 23.2 pM to 44.2 pM.

Going from B20 to B21, the “IC50 (pM), IL-13 induced TF-1 cell proliferation” value rises from 42.7 pM to 58.1 pM.

With B22 the “IC50 (pM), IL-13 induced TF-1 cell proliferation” value was 42.7 pM.
